± gives the half width of the 95% confidence interval.
Assays:
[1] = folding stability dG unfold (combined trypsin and chymotrypsin); higher = more stable
Outline: (§1)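 How resistant each design was to proteolysis was captured as K50, inferred by Bayesian fitting of sequencing counts. Unfolding free energy was then derived relative to a sequence-predicted unfolded-state K50 and a shared folded-state K50, per protease or combined. Digestion used trypsin and chymotrypsin at 11 threefold-diluted concentrations plus a no-protease condition, on mini-proteins under 80 residues without cysteine in a PA-tagged cDNA display construct. Designs were kept only when AlphaFold2 dimer inter-PAE was above 15.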

[2] = folding stability dG unfold from chymotrypsin proteolysis; higher = more stable
Outline: as §1

[3] = folding stability dG unfold from trypsin proteolysis; higher = more stable
Outline: as §1

Sequence	folding stability dG unfold [1] [kcal/mol]	folding stability dG unfold [2] [kcal/mol]	folding stability dG unfold [3] [kcal/mol]
SAGKKKKITIEIVIKPKTLEELENKIKEIAKKLGLKKIEKIEIVKIEKDKNGKIKKVVIKITLTEEALKSAG [r5_575_TrROS_Hall]	2.61 ± 0.31	3.25 ± 0.24	1.51 ± 0.12
SAGKKKKVVITIKVEKSEEEVKELVKKLAEEAKKKGKEVVIKIEVDGKTYEFTLEDIKKLPPNAKVTLLSAG [r5_626_TrROS_Hall]	1.58 ± 0.44	1.67 ± 0.096	1.56 ± 0.11
SAGKKPKVIEKTITIKVYDKKTKKEYEIKIKVRVVKKDGKVIEEFSEEEAKELAKKLAEELKKNKNIKPSAG [r5_426_TrROS_Hall]	2.22 ± 0.14	2.44 ± 0.04	1.81 ± 0.097
SAGKKSIVAPYEELKKIIELLPSGKKYKVIASDPNGKKIEGTIEVKGGKAKIEPGPKNTFKDLLIVITGSAG [r5_85_TrMRF]	0.248 ± 0.12	0.3 ± 0.13	0.248 ± 0.061
SAGKKTIMIFIPGNMPLDTLKSALRNLPPNVEIHIMYPGQMQTITYDPDDIEIELPPGFPNFYIMIEVPSAG [r5_373_TrROS]	2.72 ± 0.057	2.646 ± 0.017	2.68 ± 0.13
SAGKKVKINIKLPEGAKVTKIEFDKKTKTIKITIYDKNGKKVLEMTFVYKDKNGKYKIVKKITVYLKKPSAG [r5_434_TrROS_Hall]	4.09 ± 0.27	4.19 ± 0.068	2.97 ± 0.27
SAGKKVVIIEIEEVTNEDGEKEYKIRVLVKDEETGEVTEREITVKEGESIEDLIKKALEEGADEVIIVPSAG [r5_37_TrROS_Hall]	4.12 ± 0.25	4.15 ± 0.14	3.98 ± 0.13
SAGKKYVVVIDIEVKMPGKTKPRPIVIPVPEGETIKEQLSELPGLDNVKIKIQVIPPDQDPDFAGQPISAGG [r19_339_TrROS]	1.2 ± 0.29	1.76 ± 0.17	0.569 ± 0.16
SAGKLKPGDPVKIKIEIERDPGNGMVRVTYKIEFKDGMYVTMIIPPNGPIHVEIFNPDDGKEREETIPLSAG [r5_55_TrROS]	2.46 ± 0.26	2.67 ± 0.096	2.15 ± 0.085
SAGKMKIISVKIENNTITIEIYKDGKKIKKIEIKKNKKKIIIKIEIEPGEEIKIKIEINGKTYEITIKPSAG [r5_533_TrROS_Hall]	4.11 ± 0.46	4.64 ± 0.23	2.89 ± 0.26
SAGKMVKITITGPADKIKELLKKLFPNAEVEVKKVNGKLVFYFKPGEEVIEIEITDKDGNKLTIKIEKVSAG [r5_123_TrROS_Hall]	3.48 ± 0.17	3.74 ± 0.087	2.54 ± 0.066
SAGKPEWKLVETIEVTIEVPPGVTVEEIEKKLLEALKEKGIKEVKIEVTYDKENKTITVRVEVLVKKEKSAG [r5_924_TrROS_Hall]	1.66 ± 0.26	1.92 ± 0.11	1.27 ± 0.13
SAGKPKKKIKIKLYNVDTGEEIEIEVTVEELKKLLEKLGFEVVKIEYDEETGEVTIYVKVDGYYLEIEESAG [r5_521_TrROS_Hall]	3.41 ± 0.28	3.55 ± 0.13	2.63 ± 0.16
SAGKPKKKKRTITIPIEHNPNNGNFTIKIRWPGRPVTVPFPGDDPEEMLDNMLNELENRLGWPIDEVEISAG [r5_251_TrROS]	0.429 ± 0.23	-0.116 ± 0.27	0.932 ± 0.069
SAGKPKPEETVTLVLEVPKENPIKVEELFEKLPDVKFVEVKVEPLPDDRVLITITVLPEDVEKIKKALGSAG [r5_554_TrMRF]	2.76 ± 0.13	2.13 ± 0.069	3.58 ± 0.28
SAGKPKVKVETVTIEVDGKKIKIEVVELENGEKLVRVEVFDENGELVETKTVTLEELKKLLEKAGIEVSAGG [r19_90_TrROS_Hall]	1.84 ± 0.28	2.2 ± 0.16	1.64 ± 0.1
SAGKPVKVTLNVVRLPGTGELVVFAEITYPDGSTAYAVARADLATGTVHVKLFDPNGKLLAELTVTLKPSAG [r14_524_TrMRF]	4.4 ± 0.096	4.62 ± 0.11	3.64 ± 0.2
SAGKRMPVEEIANELAKEFPPGQTREVPIRNEDGGEWITLTVYHPNGKPVWKITIRPDGEIEVEWVPLSAGG [r19_0_TrROS]	1.94 ± 0.088	2.31 ± 0.024	0.889 ± 0.042

Sequence	folding stability dG unfold [1] [kcal/mol]	folding stability dG unfold [2] [kcal/mol]	folding stability dG unfold [3] [kcal/mol]
SAGKSIKILITTEKEEEAKKLAEEIKKELPKLGYKVEVYIMPKEEFEKFLKEFVVPEPDGKLVKVDLSSAGG [r19_187_TrMRF]	1.48 ± 0.19	2.09 ± 0.1	0.482 ± 0.056
SAGKSKPILVEITFPNGEKAKVLAVEFPNTVYVFAVVTSKDGSKYLVEAIIDVSPTKIKIFTKSYPLESAGG [r19_385_TrMRF]	3.64 ± 0.081	4.1 ± 0.043	2.56 ± 0.1
SAGKTIVLPPEMTKEQIEALAKELAEEEGFEKVELVEYDEEKGVFTVKVKVDGKEKTIEIKIVSPEELESAG [r5_912_TrROS_Hall]	2.3 ± 0.084	2.622 ± 0.022	1.62 ± 0.046
SAGKTIVVPTEEEAEKLAKELAEETGKEVEIVKVEKEKKKDGYEVYTIKVKLKDNNKTIEIKIVRPKEKSAG [r5_173_TrROS_Hall]	1.55 ± 0.25	1.47 ± 0.11	1.52 ± 0.17
SAGKTRTINFPGFQIQVQRDPDGKKEITIMFDNPEQRKQMIEQNPFLREFIEWAEKDGLKVEIHVMPPKSAG [r14_873_TrROS]	2.06 ± 0.18	2.04 ± 0.15	1.85 ± 0.071
SAGKTVTKTKTEYEYKDGKLEKKKVKTETIEPKPKIEVKEVKITLKDGSEVTAKIVSIDPKTKKVVIELSAG [r5_735_TrROS_Hall]	0.0452 ± 0.23	-0.0238 ± 0.075	0.26 ± 0.099
SAGKVKLTIMIHPMRKNGKPRYYVMVKIEIPGGPKAEIMFPFDSPEQAKNLLEDLGLKVEPEDISIMRWSAG [r5_233_TrROS]	1.94 ± 0.051	1.94 ± 0.12	1.89 ± 0.022
SAGLIKIERTGDKLTITIPLKGAPPGAQVRIMVFTDGKVEEHWIPPGKEVEITIPPDNIHIFIQIYPPDSAG [r5_867_TrROS]	3.33 ± 0.32	3.15 ± 0.14	3.22 ± 0.38
SAGLKEIAKKLGLSEEKIKIKEIKKKKKVVYDKKTKKKYEKEEIVIKIEIVDPKTKKKYEIEIPLEEIKSAG [r5_517_TrROS_Hall]	2.55 ± 0.22	2.63 ± 0.18	2.28 ± 0.18
SAGLKFSITKAEWENGYLTVKVMVTGPDGQSQPFTITIRIKPVPKPPPKMTEEKDPNGKKKWEYKDPDSAGG [r19_172_TrROS]	2.47 ± 0.24	2.6 ± 0.072	2.26 ± 0.11
SAGLKIVEDIRKKLEEEGYDVKVKYEIKPEPKDGKYIITIEVTIKDEKGNEVPIGKETIVIPLEEYEKSSAG [r5_413_JUSTAS]	2.28 ± 0.16	2.74 ± 0.083	1.27 ± 0.18
SAGLKVKIVKAEVKNGYLTLEVEVTGKDGSKKPFKIKIKLKPVPKPKPVFKFTKLPNGEIKVEVFDPSSAGG [r19_172_TrMRF]	3.04 ± 0.08	3.212 ± 0.03	2.76 ± 0.062
SAGLLEVLRKIAEELGWELTSVEVHELPDGSVVATGEFRKGDRTYRVDIRYDPETGRVEVRLEPVPVPESAG [r14_784_TrMRF]	> 6	5.51 ± 0.2	4.6 ± 0.22
SAGLNIPPEMTVDELVEFLKSLGVKSYKVEKTEDPESYVVTFEFPDFTVVMTFHPDSVTITVVPKDEPLSAG [r5_899_TrMRF]	3.34 ± 0.14	3.52 ± 0.061	3.14 ± 0.11
SAGLPIPEGATVKTLESSESVEGNKTVKTDKIIVTFPDGSTKEVEVVTTYDPNGNPTTTYIVGNKKIPLSAG [r5_507_JUSTAS]	1.32 ± 0.059	1.19 ± 0.058	1.45 ± 0.052
SAGMAEKIKAELEKKGYKYEIEEVKDPNNDKTYLIVKIYPKDGKEYIIIFDKEKGEVIKKIPSDEPNILSAG [r5_938_JUSTAS]	1.64 ± 0.24	1.59 ± 0.14	1.49 ± 0.13
SAGMDLKIEEEEDPLSGSRLFRIELRDPDGKYNLTVVVLKENGKIKAVLVLRENTGEPLTLPELVELLESAG [r5_872_TrMRF]	3.43 ± 0.086	3.773 ± 0.017	2.83 ± 0.19
SAGMDPSDPNSITTLTTEVEPLPDGSTRVTTYTKLPDGTIVKNVTTLDPAGNVLTTTTTPIPPEALNASAGG [r19_285_JUSTAS]	3.75 ± 0.096	3.85 ± 0.06	3.56 ± 0.17
